Reference: patent US20250197448A1 (UNIVERSITY OF ROCHESTER, published 2025)
One block for each binder: values may come before it. Starred links: 1 amine or outer side, 2 acyl side, 3 side chain; linkers in the order of their positions; H or OH if unused. Positions of bridges follow the written chain, without caps; N, C: chain ends. Non-standard residues stand in square brackets, D forms with d. No end group written: not given here. O2beY = O-(2-bromoethyl)-tyrosine (p-2beF), reacts with Cys to form a thioether, O=C([C@H](Cc1ccc(OCCBr)cc1)N[*:1])[*:2]; pCaaF = p-(2-chloroacetamido)-phenylalanine, O=C(CCl)Nc1ccc(C[C@H](N[*:1])C(=O)[*:2])cc1

Key:
[1] = biological target: T1, integrin αvβ3 on the surface of MDA-MB-231 breast cancer cells (human, UniProt P06756 31-1048; P05106 27-788); assay: flow cytometry on MDA-MB-231 cells, FITC anti-IgG1 Fc secondary
T1 construct: whole, on cells; also called integrin receptors on the cells
T1 sequence (P06756 31-1048, chain 1 of 2): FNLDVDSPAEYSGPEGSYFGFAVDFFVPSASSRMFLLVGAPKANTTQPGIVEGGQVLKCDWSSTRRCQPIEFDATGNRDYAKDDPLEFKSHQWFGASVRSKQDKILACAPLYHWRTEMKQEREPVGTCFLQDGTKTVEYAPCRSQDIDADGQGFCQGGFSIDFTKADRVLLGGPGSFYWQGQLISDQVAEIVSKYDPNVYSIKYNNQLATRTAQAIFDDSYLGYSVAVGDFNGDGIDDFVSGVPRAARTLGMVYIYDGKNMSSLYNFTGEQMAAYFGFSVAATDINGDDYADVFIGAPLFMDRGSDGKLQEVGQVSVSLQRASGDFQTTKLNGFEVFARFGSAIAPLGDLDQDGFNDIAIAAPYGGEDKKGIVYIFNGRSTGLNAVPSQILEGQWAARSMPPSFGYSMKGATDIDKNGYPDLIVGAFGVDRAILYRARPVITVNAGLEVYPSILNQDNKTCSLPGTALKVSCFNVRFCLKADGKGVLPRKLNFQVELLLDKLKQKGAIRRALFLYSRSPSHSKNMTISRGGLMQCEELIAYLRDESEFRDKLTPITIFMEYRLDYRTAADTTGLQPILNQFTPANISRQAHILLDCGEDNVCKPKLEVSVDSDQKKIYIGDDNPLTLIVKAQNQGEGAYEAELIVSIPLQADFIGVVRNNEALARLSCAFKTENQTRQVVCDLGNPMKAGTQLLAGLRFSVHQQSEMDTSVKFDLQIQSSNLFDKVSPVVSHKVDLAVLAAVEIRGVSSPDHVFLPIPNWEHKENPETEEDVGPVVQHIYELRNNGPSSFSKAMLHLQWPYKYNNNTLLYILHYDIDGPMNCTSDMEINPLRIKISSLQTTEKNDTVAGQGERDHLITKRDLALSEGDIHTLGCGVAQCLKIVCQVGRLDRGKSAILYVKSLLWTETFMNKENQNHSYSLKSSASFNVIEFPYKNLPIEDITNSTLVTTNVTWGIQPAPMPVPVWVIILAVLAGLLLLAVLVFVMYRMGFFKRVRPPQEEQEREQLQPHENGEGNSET
T1 sequence (P05106 27-788, chain 2 of 2): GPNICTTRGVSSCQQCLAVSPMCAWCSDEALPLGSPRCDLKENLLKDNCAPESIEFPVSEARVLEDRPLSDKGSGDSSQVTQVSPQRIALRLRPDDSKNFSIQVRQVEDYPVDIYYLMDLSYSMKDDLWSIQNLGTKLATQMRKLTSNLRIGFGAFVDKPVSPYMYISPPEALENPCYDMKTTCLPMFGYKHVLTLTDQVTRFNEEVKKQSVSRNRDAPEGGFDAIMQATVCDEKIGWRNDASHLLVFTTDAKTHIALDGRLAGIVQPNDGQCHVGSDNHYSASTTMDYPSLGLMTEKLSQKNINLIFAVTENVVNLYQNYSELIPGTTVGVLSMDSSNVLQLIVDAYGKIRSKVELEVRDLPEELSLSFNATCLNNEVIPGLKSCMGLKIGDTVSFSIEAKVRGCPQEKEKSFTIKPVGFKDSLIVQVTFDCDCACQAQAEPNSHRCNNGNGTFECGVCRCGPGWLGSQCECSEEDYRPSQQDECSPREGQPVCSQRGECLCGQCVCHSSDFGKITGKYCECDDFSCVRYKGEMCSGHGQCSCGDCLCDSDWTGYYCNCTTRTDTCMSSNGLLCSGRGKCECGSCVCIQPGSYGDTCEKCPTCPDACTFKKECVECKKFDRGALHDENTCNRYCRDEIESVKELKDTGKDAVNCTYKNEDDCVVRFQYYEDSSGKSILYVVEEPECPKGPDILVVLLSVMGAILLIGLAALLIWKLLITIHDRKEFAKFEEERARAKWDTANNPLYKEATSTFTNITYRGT
Description: Flow Cytometry Analysis. […] When confluent, media was aspirated, cells were washed once with 1×DPBS (no calcium, no magnesium) (Gibco). Adherent cells were detached from the petri dish with 1 mL of accutase (Gibco) pre-warmed to 37° C., followed by incubated for 5 min at 37° C. Cells were spun down using centrifugation. Supernatant was removed and cells were washed three times with staining buffer (1×PBS with 0.5% BSA). Cells were resuspended in Eppendorf tubes in 100 μL PBS at a concentration of […]. Cyclopeptibodies or Human anti-PD-L1 antibody (1 μg) (R&D Systems, MAB10355) in staining buffer were then added to the tubes with a concentration of 1.5 μM in 200 μL. Eppendorf tubes were then placed on the platform shaker for gently shaking for 1 hour at room temperature. After 1 hour, cells were spun down using centrifugation, then supernatant was removed. After washing three times, cells were resuspended in 200 μL of Fluorescein (FITC) AffiniPure Goat Anti-Human IgG with working concentration of 30 μg/mL (Jackson ImmunoResearch, 109-095-098), incubated in the dark for 30 min at room temperature. […] Then cells were analyzed on a BD FACS Accuri C6⁺ using a filter of 533/30. […]
The cyclopeptibody treated cells were then analyzed by flow cytometry using a procedure similar to that described for the PD-L1-targeting cyclopeptibodies in Example 9.

Sonic Hedgehog (Shh) [2] = biological target: T2, Sonic Hedgehog (Shh) (human, UniProt Q15465 24-197, limits assumed); assay: plate binding assay with immobilised Shh
Description: (§1) After washing (3×150 μL of PBS with 0.05% Tween-20), each well was incubated with 100 μL of purified FLAG-tagged cyclopeptibody at varying concentrations for 1 hour at room temperature. After washing three times with wash buffer, each well was incubated with 100 μL of 1:2500 dilution of HRP-conjugate mouse anti-FLAG polyclonal antibody (Sigma-Aldrich) for 1 hour at room temperature. After washing three times with wash buffer, 100 μL of 2.2 mM o-phenylenediamine dihydrochloride, 4.2 mM urea hydrogen peroxide, 100 mM dibasic sodium phosphate, and 50 mM sodium citrate, pH 5.0, were added to each well, followed by measurement of the absorbance at 450 nm after 10-20 min using a Tecan Infinite 1000 plate reader. Equilibrium dissociation constants (Kp) were determined by fitting the dose-response curves to a 1:1 binding isotherm equation via nonlinear regression. using SigmaPlot. Mean values and standard deviations were calculated from experiments performed in triplicate.
To prepare a Hedgehog-targeting cyclopeptibody, a Shh-binding cyclic peptide previously developed via affinity maturation of a HHIP loop 2 mimic (Owens A E et al., 2017, J. Am. Chem. Soc., 139:12559-12568) was genetically fused to the Fc domain of human IgG1 via a spacer (Entry 5, Table 1). The resulting cyclopeptibody (called L2-m5-Tras-Fc) was expressed, purified, and characterized as described in Example 4. […]

Sonic Hedgehog (Shh) [3] = biological target: T2, Sonic Hedgehog (Shh); assay: plate binding assay: immobilised Shh, FLAG-tagged binder titrated, HRP anti-FLAG detection
[4] = biological target: T3, PD-L1 (Programmed Death-Ligand 1), recombinant, His-tagged (human, UniProt Q9NZQ7 18-134, limits assumed); assay: plate binding assay: immobilised PD-L1, FLAG-tagged binder titrated, HRP anti-FLAG detection
T3 construct: Immobilised on microtiter plates
T3 sequence (Q9NZQ7 18-134 limits assumed): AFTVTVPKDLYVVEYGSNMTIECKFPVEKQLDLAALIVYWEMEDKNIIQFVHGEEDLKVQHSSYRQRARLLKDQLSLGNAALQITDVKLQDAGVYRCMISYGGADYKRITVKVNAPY
Description: (§2) Streptavidin Binding Assay. For the streptavidin binding assays, streptavidin-coated plates (Sigma-Aldrich) were used. For the Keap1, Shh and PD-L1 binding assay, target protein was immobilized on microtiter plates by incubating 100 μL of a 4 μM protein solution in PBS buffer overnight at 4° C., followed by decanting the protein solution and blocking with 0.5% bovine serum albumin in PBS for 2 h at room temperature. After washing (3×150 μL of PBS with 0.05% Tween-20), each well was incubated with 100 μL of purified FLAG-tagged cyclopeptibody at varying concentrations for 1 hour at room temperature. After washing three times with wash buffer, each well was incubated with 100 μL of 1:2500 dilution of HRP-conjugate mouse anti-FLAG polyclonal antibody (Sigma-Aldrich) for 1 hour at room temperature. After washing three times with wash buffer, 100 μL of 2.2 mM o-phenylenediamine dihydrochloride, 4.2 mM urea hydrogen peroxide, 100 mM dibasic sodium phosphate, and 50 mM sodium citrate, pH 5.0, were added to each well, followed by measurement of the absorbance at 450 nm after 10-20 min using a Tecan Infinite 1000 plate reader. Equilibrium dissociation constants (Kp) were determined by fitting the dose-response curves to a 1:1 binding isotherm equation via nonlinear regression. using SigmaPlot. Mean values and standard deviations were calculated from experiments performed in triplicate.

[5] = biological target: T3, PD-L1 (Programmed Death-Ligand 1), …; assay: competition assay: plate-immobilised PD-L1, competitor biotinylated PD-1 (500 nM), bound PD-1 read with HRP-streptavidin
Description: as §2, with “After washing three times with wash buffer, each well was incubated with 100 μL of 1:2500 dilution of HRP-conjugate mouse anti-FLAG polyclonal antibody (Sigma-Aldrich) for 1 hour at room temperature.” left out
PD-L1 Competition Assay. […] After washing, the bound PD-1 was quantified by means of HRP-conjugate Streptavidin and colorimetric assay as described above. […]

[6] = biological target: T4, PD-L1 on the surface of MDA-MB-231 breast cancer cells (human, UniProt Q9NZQ7 19-290); assay: flow cytometry on MDA-MB-231 cells, 0.09 mg/ml, FITC anti-human IgG Fc secondary
T4 construct: whole, on cells; also called PD-L1 receptor on the cancer cells
T4 sequence (Q9NZQ7 19-290): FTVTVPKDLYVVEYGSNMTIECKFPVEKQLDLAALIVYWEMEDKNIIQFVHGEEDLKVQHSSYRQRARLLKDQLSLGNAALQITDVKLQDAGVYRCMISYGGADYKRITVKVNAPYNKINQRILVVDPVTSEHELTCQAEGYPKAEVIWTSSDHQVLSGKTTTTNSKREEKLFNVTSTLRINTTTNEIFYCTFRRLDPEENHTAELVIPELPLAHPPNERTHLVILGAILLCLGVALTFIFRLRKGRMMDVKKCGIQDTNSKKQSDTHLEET
Description: The cells were then incubated with fluorescein-conjugated anti-human IgG Fc antibody and analyzed by flow cytometry. The same experiment was carried out in parallel using commercially available anti-PD-L1 antibody as positive control and various negative controls. […] Several applications for these compounds can be easily envisioned, including detection and/or staining of PD-L1 in vitro and in vivo (e.g., upon conjugation of the cyclopeptibody with a fluorescent dye, IR probe, or PET contrast agent), cell-targeted drug delivery (e.g., upon conjugation of the PD-L1-binding cyclopeptibody with a drug cargo), and use as therapeutic agents in cancer immunotherapy, among others.

[7] = biological target: T3, PD-L1 (Programmed Death-Ligand 1), …; assay: plate binding assay with immobilised PD-L1
Description: as §1
To illustrate this aspect of the invention, a series of PD-L1 targeting cyclopeptibodies were prepared by introducing variable spacer sequences between the cyclic peptide and Fc domain in the PD-L1-targeting cyclopeptibody cRK10-Tras-Fc (Table 1, Entries 31-34; FIG. 20). The spacer sequences included a more flexible (-GSGSGS-), more rigid (-PAPAP-; -EAAAK-) or longer linker (Q12) compared to the exa-glutamine (Q6) spacer sequence in cyclopeptibody cRK10-Tras-Fc.

binding result [1]: binds
B1: RGD5R (pCaaF)-Tras-Fc (Fc fusion)
chain: DYKDDDDKGSGSCRDRGDY[pCaaF]QQQQQQIEGR-{Fc-H6}
modifications: thioether 13-20; also: dimeric through the Fc
notes: Integrin-targeting cyclopeptibody; dimeric through the human IgG1 Fc; also called cRGD5R (pCaaF)-Tras-Fc

fold improved affinity against the same cyclic peptide fused to CBD (Sonic Hedgehog (Shh) [2]): > 55 fold
Kd (Sonic Hedgehog (Shh) [3]): 7 nM
B2: L2-m5-Tras-Fc (Fc fusion)
chain: DYKDDDDKGSGSTLSW[O2beY]EAMDMCTSSQQQQQQ-{Fc-H6}
modifications: thioether 17-23; also: dimeric through the Fc
notes: Cyclic peptide fused through a (Gln)6 spacer to human IgG1 Fc; dimeric through the Fc; made in E. coli; also called FLAG-(GS)2-TLSWZEAMDMCTSS-(Q)6-(Fc)^1-H6

fold higher MFI against cRK10-Tras-Fc [6]: 4 fold
B3: cCLP003 (pCaaF)-Tras-Fc (Fc fusion)
chain: DYKDDDDKGSGSWHFS[pCaaF]NWRWLPCQQQQQQ
modifications: thioether 17-24 (inferred); not fully specified (C-terminus)
notes: also called cCLP003-Tras-Fc; cCLP003-Tras-Fc-His
Kd [4]: ~250 nM
IC50 [5]: 6000 nM
fold increase in affinity against the cyclic peptide alone [7]: 40 fold
